Article PMC4570275

Biological target: Glucocorticoid-induced TNFR-related protein (GITR) (mouse (endogenous in CD4+ T cells of mice)) (UniProt O35714)
Chain of UniProt O35714 (O35714 20-228): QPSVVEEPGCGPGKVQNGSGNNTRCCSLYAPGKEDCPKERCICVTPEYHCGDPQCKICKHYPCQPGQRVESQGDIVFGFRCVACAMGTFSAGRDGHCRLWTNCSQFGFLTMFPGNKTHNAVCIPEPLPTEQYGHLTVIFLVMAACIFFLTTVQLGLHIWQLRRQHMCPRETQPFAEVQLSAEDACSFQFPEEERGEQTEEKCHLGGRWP

percent Foxp3+ T cells by flow cytometry: OT-II CD4+ T cells activated with OVA and autologous APCs, TGF-β and IL-2, 3 days; >60% without GITR stimulation: 10%
percent Foxp3+ T cells by flow cytometry: WT B6 naive CD4+ T cells activated 3 days under iTreg-polarizing conditions with His-GITR Ligand (200 ng/ml plus anti-His mAb); ∼65% without GITR ligation: 4%
percent IL-9+ Th9 cells by flow cytometry: WT B6 naive CD4+ T cells activated 3 days under iTreg-polarizing conditions with GITR ligation: 30%
Substance: His-tagged recombinant mouse GITR Ligand (from UniProt Q7TS55 1-173)
